Experimental data reported in patent US20200339702A1 (ULTRAHUMAN THIRTEEN, published 2020).

How the values were obtained:
[1] = molecular target: T1, human ERBB3 on transiently transfected HEK-293 cells (human, UniProt P21860 20-1342); test: flow cytometry, human ERBB3-transfected HEK-293
T1 construct: also called human ERBB3+ HEK-293 cells
Method: (§1) Purified IgGs were tested in FACs for binding to human and rhesus monkey ERBB3 expressed on transiently transfected HEK-293 cells and HEK-293 wild-type cells. The IgG samples were titrated in three-fold serial dilutions starting at 500 nM to 0.008 nM. Binding of IgGs was detected with a mouse anti-human IgG conjugated to FITC. Results were analyzed by examining the Mean Fluorescence Intensity (MFI) of 10000 cells per sample in the BL-1 channel detector of a flow cytometer (Attune™ NxT Acoustic Focusing Cytometer, Invitrogen/ThermoFisher Scientific).
(§2) Antibodies to ERBB3 were analysed for concentration-dependent binding at the cell surface via flow cytometry. HEK-293 cells were transiently transfected with either human or rhesus ERBB3 full-length cDNAs. Anti-ERBB3 IgGs and an isotype control were then all tested in IgG1null format, over a concentration range of 500-0.008 nM for binding to human (FIG. 5A) and rhesus (FIG. 5B) transfected cells.

[2] = molecular target: T2, rhesus ERBB3 on transiently transfected HEK-293 cells (rhesus monkey (Macaca mulatta), UniProt P21860 20-1342 (human entry)); test: flow cytometry, rhesus ERBB3-transfected HEK-293
T2 construct: also called rhesus ERBB3+ HEK-293 cells
T2 chain: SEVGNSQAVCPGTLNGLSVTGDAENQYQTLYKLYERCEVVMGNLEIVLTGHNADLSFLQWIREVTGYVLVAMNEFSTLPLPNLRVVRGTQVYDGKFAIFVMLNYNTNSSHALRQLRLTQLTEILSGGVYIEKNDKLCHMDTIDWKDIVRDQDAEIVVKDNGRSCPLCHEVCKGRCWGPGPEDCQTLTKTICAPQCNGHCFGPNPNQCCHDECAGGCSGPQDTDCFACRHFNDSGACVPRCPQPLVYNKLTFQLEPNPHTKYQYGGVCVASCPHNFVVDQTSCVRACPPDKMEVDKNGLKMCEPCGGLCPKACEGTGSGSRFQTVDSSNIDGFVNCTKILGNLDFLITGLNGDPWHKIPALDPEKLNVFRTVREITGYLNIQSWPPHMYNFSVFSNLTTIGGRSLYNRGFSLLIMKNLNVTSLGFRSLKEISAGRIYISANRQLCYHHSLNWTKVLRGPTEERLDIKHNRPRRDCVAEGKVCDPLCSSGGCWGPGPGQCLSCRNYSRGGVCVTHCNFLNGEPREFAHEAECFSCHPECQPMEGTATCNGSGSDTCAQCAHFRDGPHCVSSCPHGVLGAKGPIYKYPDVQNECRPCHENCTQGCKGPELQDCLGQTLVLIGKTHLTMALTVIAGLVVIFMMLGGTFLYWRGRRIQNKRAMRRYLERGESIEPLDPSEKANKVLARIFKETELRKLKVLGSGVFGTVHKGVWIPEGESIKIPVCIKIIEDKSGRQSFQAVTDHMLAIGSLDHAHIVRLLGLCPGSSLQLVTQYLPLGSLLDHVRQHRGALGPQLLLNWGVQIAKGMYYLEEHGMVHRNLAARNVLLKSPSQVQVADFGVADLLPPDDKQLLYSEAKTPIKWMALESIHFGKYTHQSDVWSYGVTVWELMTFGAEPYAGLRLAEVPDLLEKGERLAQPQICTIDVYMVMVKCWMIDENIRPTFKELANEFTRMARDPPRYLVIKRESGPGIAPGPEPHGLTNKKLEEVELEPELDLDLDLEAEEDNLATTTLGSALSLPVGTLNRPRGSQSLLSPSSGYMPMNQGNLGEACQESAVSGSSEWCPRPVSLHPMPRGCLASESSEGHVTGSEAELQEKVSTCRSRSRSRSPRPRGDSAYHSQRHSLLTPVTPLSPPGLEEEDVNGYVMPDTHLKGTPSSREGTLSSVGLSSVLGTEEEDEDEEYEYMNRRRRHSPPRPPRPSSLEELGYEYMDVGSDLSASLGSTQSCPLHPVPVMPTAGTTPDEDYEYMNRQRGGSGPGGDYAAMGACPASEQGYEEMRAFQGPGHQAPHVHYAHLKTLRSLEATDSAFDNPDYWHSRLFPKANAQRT
Method: as §1, §2

[3] = molecular target: T3, human ERBB3 His tagged, monomeric (human, UniProt P21860 20-643, biotinylated in the Alphascreen assays (sites not given)); test: SPR (Biacore), captured IgG, monomeric ERBB3-His analyte
T3 construct: Used unbiotinylated as Biacore analyte and biotinylated in Alphascreen; treated as one molecule; also called human ERBB3-His (Acrobiosystems); biotinylated monomeric human ERBB3
Method: (§3) Affinity (KD) of purified IgGs was determined via SPR with antigen in-solution on a Biacore® 3000 (GE). A mouse anti-human antibody (CH1 specific) was immobilized on a CM5 Sensor Chip to a level of 2000 RU in acetate buffer at pH 4.5 using amine coupling following the Wizard instructions for two channels. One channel was used for background signal correction. The standard running buffer HBS-EP pH 7.4 was used. Regeneration was performed with a single injection of 10 μl of 10 mM Glycine at pH 1.5 at […]. IgG samples were injected for 2 minutes at 50 nM at 30 μl/min followed by an off-rate of 60 seconds. The monomeric antigen (human ERBB3 His tagged or rhesus monkey ERBB3 His tag) was injected in two fold serial dilutions from 3 nM down to 0.2 nM, for 2 minutes at 30 μl/min followed by an off-rate of 300 seconds. The obtained sensorgrams were analysed using the Biacore® 3000 evaluation (BlAevaluation) software. The KD was calculated by simultaneous fitting of the association and dissociation phases to a 1:1 Langmuir binding model.
(§4) Biacore® analyses of binding affinity were performed for all IgGs to solution-phase, monomeric human and rhesus ERBB3 proteins.

[4] = molecular target: T4, rhesus monkey ERBB3 His tag, monomeric (rhesus monkey (Macaca mulatta), UniProt P21860 20-643 (human entry), limits assumed); test: as above
T4 chain: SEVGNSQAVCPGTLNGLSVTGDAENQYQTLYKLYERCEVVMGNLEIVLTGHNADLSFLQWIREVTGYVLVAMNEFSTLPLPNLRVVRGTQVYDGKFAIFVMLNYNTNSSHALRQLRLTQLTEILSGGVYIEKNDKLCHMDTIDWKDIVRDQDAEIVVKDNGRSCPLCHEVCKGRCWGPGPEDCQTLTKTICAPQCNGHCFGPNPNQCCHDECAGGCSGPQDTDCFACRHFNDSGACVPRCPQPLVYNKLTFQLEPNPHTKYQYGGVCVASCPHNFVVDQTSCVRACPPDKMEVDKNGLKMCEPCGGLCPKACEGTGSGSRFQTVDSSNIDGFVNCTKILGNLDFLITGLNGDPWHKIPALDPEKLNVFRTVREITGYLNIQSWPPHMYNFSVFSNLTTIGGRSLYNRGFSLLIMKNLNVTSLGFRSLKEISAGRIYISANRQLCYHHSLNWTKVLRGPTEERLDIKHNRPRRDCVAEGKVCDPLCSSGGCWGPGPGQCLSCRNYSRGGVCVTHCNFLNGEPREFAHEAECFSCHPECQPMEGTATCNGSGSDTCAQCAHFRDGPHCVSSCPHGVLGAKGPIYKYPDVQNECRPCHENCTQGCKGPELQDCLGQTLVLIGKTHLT
Method: as §3, §4

B1: 15G11 IgG1null (antibody, V domains shown)
VH: QVQLVESGGGLVKPGGSLRLSCAASGFTFSDYGMSWIRQAPGKGLEWVSTISDSGSYTYYPDSVKGRFTISRDNAKNSLYLQMNSLRAEDTAVYYCARELGDYDGFDYWGQGTLVTVSS
VL: DIQMTQSPSSLSASVGDRVTITCRASQEISSYLSWYQQKPGKAPKLLIYAASSLDSGVPSRFSGSGSGTDFTLTISSLQPEDFATYYCLQYDSTPYTFGGGTKVEIK
notes: Human IgG1null (L234A, L235A, G237A) and human Ckappa
maximum MFI, fold over isotype control background [1]: > 20 fold
maximum MFI, fold over isotype control background [2]: > 20 fold
Kd [3]: 78 pM
koff [3]: 0.0012 s⁻¹
kon [3]: 1.6e+07 M⁻¹ s⁻¹
Kd [4]: 330 pM
koff [4]: 0.0011 s⁻¹
kon [4]: 3.3e+06 M⁻¹ s⁻¹

B2: 15D10 IgG1null (antibody, V domains shown)
VH: QVQLVESGGGLVKPGGSLRLSCAASGFTFSDYGMSWIRQAPGKGLEWVSTISDGGSYTYYADNVKGRFTISRDNAKNSLYLQMNSLRAEDTAVYYCAREWGDYDGFDFWGQGTLVTVSS
VL: DIQMTQSPSSLSASVGDRVTITCRASQSISSYLSWYQQKPGKAPKLLIYAASTLQSGVPSRFSGSGSGTDFTLTISSLQPEDFATYYCLQYDSTPLTFGGGTKVEIK
notes: as for B1
maximum MFI, fold over isotype control background [1]: > 20 fold
maximum MFI, fold over isotype control background [2]: > 20 fold
Kd [3]: 140 pM
koff [3]: 0.0019 s⁻¹
kon [3]: 1.4e+07 M⁻¹ s⁻¹
Kd [4]: 540 pM
koff [4]: 0.0018 s⁻¹
kon [4]: 3.3e+06 M⁻¹ s⁻¹

B3: 15D03 IgG1null (antibody, V domains shown)
VH: QVQLVESGGGLVKPGGSLRLSCAASGFTFSDYGMSWIRQAPGKGLEWVSTISDSGSYIYYADSVKGRFTISRDNAKNSLYLQMNSLRAEDTAVYYCAREWGDYDGFDHWGQGTLVTVSS
VL: DIQMTQSPSSLSASVGDRVTITCRASQEISSYLSWYQQKPGKAPKLLIYAASSLQSGVPSRFSGSGSGTDFTLTISSLQPEDFATYYCLQYDSTPLTFGGGTKVEIK
notes: Human IgG1null and human Ckappa
maximum MFI, fold over isotype control background [1]: > 20 fold
maximum MFI, fold over isotype control background [2]: > 20 fold
Kd [3]: 260 pM
koff [3]: 0.003 s⁻¹
kon [3]: 1.1e+07 M⁻¹ s⁻¹
Kd [4]: 260 pM
koff [4]: 0.0047 s⁻¹
kon [4]: 1.8e+07 M⁻¹ s⁻¹

B4: 11H02 IgG1null (antibody, V domains shown)
VH: QVQLVESGGGLVKPGGSLRLSCAASGFTFSDYGMSWIRQAPGKGLEWVSTISDSGSYTYYADSVKGRFTISRDNAKNSLYLQMNSLRAEDTAVYYCAREWGDYDGFDNWGQGTLVTVSS
VL: DIQMTQSPSSLSASVGDRVTITCRASQIISSYLSWYQQKPGKAPKLLIYAASSLDSGVPSRFSGSGSGTDFTLTISSLQPEDFATYYCLQYYSTPLTFGGGTKVEIK
notes: as for B3
maximum MFI, fold over isotype control background [1]: > 20 fold
maximum MFI, fold over isotype control background [2]: > 20 fold
Kd [3]: 1300 pM
koff [3]: 0.0081 s⁻¹
kon [3]: 6.1e+06 M⁻¹ s⁻¹
Kd [4]: 2100 pM
koff [4]: 0.037 s⁻¹
kon [4]: 1.7e+07 M⁻¹ s⁻¹

B5: 16B09 IgG1null (antibody, V domains shown)
VH: QVQLVESGGGLVKPGGSLRLSCAASGFTFSDYSMSWIRQAPGKGLEWVSTISDSGTYTYYPDSVKGRFTISRDNAKNSLYLQMNSLRAEDTAVYYCAREWGDYDGFDFWGQGTLVTVSS
VL: DIQMTQSPSSLSASVGDRVTITCRASQEISSYLSWYQQKPGKAPKLLIYAASTLQSGVPSRFSGSGSGTDFTLTISSLQPEDFATYYCLQYDSTPLTFGGGTKVEIK
notes: as for B1
maximum MFI, fold over isotype control background [1]: > 20 fold
maximum MFI, fold over isotype control background [2]: > 20 fold
Kd [3]: 89 pM
koff [3]: 0.0014 s⁻¹
kon [3]: 1.6e+07 M⁻¹ s⁻¹
Kd [4]: 210 pM
koff [4]: 0.0027 s⁻¹
kon [4]: 1.3e+07 M⁻¹ s⁻¹

B6: 15E02 IgG1null (antibody, V domains shown)
VH: QVQLVESGGGLVKPGGSLRLSCAASGFTFSDYGMSWIRQAPGKGLEWVSTISDSGTTIYYADNVKGRFTISRDNAKNSLYLQMNSLRAEDTAVYYCAREYGDYDGFDYWGQGTLVTVSS
VL: DIQMTQSPSSLSASVGDRVTITCRASQSISSYLSWYQQKPGKAPKLLIYAASSLQSGVPSRFSGSGSGTDFTLTISSLQPEDFATYYCLQYDSTPLTFGGGTKVEIK
notes: as for B3
maximum MFI, fold over isotype control background [1]: > 20 fold
maximum MFI, fold over isotype control background [2]: > 20 fold
Kd [3]: 610 pM
koff [3]: 0.0039 s⁻¹
kon [3]: 6.3e+06 M⁻¹ s⁻¹
Kd [4]: 2500 pM
koff [4]: 0.0095 s⁻¹
kon [4]: 3.7e+06 M⁻¹ s⁻¹

B7: 09H02 IgG1null (antibody, V domains shown)
VH: QVQLVESGGGLVKPGGSLRLSCAASGFTFSDYSMSWIRQAPGKGLEWVSTISDGGSYTYYPDSVKGRFTISRDNAKNSLYLQMNSLRAEDTAVYYCARELGDYDGFDYWGQGTLVTVSS
VL: DIQMTQSPSSLSASVGDRVTITCRASQSISSYLSWYQQKPGKAPKLLIYAASSLQSGVPSRFSGSGSGTDFTLTISSLQPEDFATYYCLQYDSTPLTFGGGTKVEIK
notes: Human IgG1null and human Ckappa; also called 09HO2
maximum MFI, fold over isotype control background [1]: > 20 fold
maximum MFI, fold over isotype control background [2]: > 20 fold
Kd [3]: 430 pM
koff [3]: 0.0013 s⁻¹
kon [3]: 3.1e+06 M⁻¹ s⁻¹
Kd [4]: 250 pM
koff [4]: 0.0027 s⁻¹
kon [4]: 1.1e+07 M⁻¹ s⁻¹
